Reference: paper PMC10530652 (BME Frontiers, 2021)

Key:
MMP-9 = target: T1, MMP-9 (Homo sapiens, UniProt P14780); assay: In vitro enzymatic validation of FIB One with recombinant MMP-9 (plate reader); type: biochemical; settings: MMP 30 nM, n=3 in duplicate
T1 construct: recombinant MMPs (Enzo Life Sciences) (active domains of MMP-1, MMP-2, MMP-3, MMP-7, MMP-8, MMP-9, MMP-10, MMP-11, MMP-12, and MMP-13); purchased Enzo Life Sciences
Method: To determine the enzymatic specificity of FIB One, the probe was incubated at a concentration of 1 μM (unless otherwise stated) with the recombinant MMPs (Enzo Life Sciences) (active domains of MMP-1, MMP-2, MMP-3, MMP-7, MMP-8, MMP-9, MMP-10, MMP-11, MMP-12, and MMP-13, all at 30 nM), thrombin (Sigma Aldrich) (5 U/mL), factor Xa (Sigma Aldrich) (500 nM), plasmin (Sigma Aldrich) (30 nM), and human neutrophil elastase (30 nM). Where appropriate, enzymes were incubated with specific inhibitors for 30 min at 37°C prior to addition of FIB One. […] Enzyme free reactions served as a control. Enzymatic reactions were performed in MMP buffer (10 mM CaCl2, 6.1 g Tris-HCl, 8.6 g NaCl per litre, pH 7.5) in a final volume of 20 μL. Reactions were performed in duplicate in 384-well plates (Life Technologies) with optically clear plate seals (Thermo Scientific) and repeated thrice (independently). Fluorescence signal was measured for up to 60 min, ex/em 485/528 nm using microplate reader (BioTek Synergy H1 multimode reader). Data were normalised to buffer alone and are presented as fold-change in signal (relative fluorescent units, RFU) compared to enzyme-free controls. Data were plotted using Prism 7 (GraphPad Software Inc., La Jolla, CA, USA).

Crl:WI(Han) rats = assay: Single intratracheal administration toxicity study of FIB One; type: in vivo; settings: 100 µg/animal (500 µg/mL)
Method: Assessment of toxicity of FIB One was based on clinical signs, body weight, food consumption and clinical and anatomic pathology evaluations. Complete necropsies were performed on all animals with a recording of macroscopic abnormalities for all tissues. Organ weights and microscopic examinations were conducted as indicated.

[1] = tested on: Salmonella typhimurium strain TA100; assay: Reduced test article AMES test, TA100; type: cell-based; settings: up to 250 μg/well, in the absence and presence of rat liver S-9
Method: These conditions included treatments at concentrations up to 250 μg/well (a 20-fold pro rata reduction from the standard regulatory Ames assay maximum concentration), in the absence and in the presence of a rat liver metabolic activation system (S-9).

patients = assay: Clinical observations in patients after procedure; type: in vivo, human
From the text: Table S2: Clinical observations.

T1 sequence (P14780 107-444 limits assumed): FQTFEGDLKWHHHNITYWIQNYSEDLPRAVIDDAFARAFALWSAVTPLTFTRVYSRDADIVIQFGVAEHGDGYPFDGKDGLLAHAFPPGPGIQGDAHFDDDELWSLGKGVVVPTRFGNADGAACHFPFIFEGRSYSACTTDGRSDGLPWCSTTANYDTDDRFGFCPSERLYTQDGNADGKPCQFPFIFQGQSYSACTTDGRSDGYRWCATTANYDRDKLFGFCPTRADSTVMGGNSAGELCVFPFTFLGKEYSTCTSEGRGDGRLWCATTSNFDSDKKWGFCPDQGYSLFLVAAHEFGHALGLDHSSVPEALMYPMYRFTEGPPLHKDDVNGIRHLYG

(Pro-Phe-Gly-Nle-Lys-βAla)3 [FIB One]
fluorescent amplification of FIB One on exposure to enzyme (MMP-9; FIB One 1 μM, MMP buffer pH 7.5, ex/em 485/528 nm, fold-change vs enzyme-free control): rapid and specific fluorescent amplification
signal amplification compared with analogous monomeric linear structure (FRET-monomer) (MMP-9; probes 1 µM, 10 min incubation): improved signal amplification
deaths, clinical signs, body weight, food consumption, clinical or anatomic pathology (Crl:WI(Han) rats): no deaths, no adverse clinical signs and no effects of treatment
mutation induction [1]: did not induce mutation
Respiratory Rate (patients; Hour 1, mean (s.d.), baseline 16 (1)): 16 (2) bpm
Temperature (patients; Hour 1, mean (s.d.), baseline 36.6 (0.5)): 36.4 (0.4) C
Heart Rate (patients; Hour 1, mean (s.d.), baseline 76 (13)): 69 (13) bpm
Oxygen Saturations (patients; Hour 1, mean (s.d.), baseline 96 (1)): 97 (2) %
Systolic BP (patients; Hour 1, mean (s.d.), baseline 142 (22)): 124 (20) mmHg
Heart Rate (patients; Hour 2, mean (s.d.)): 67 (18) bpm
Oxygen Saturations (patients; Hour 2, mean (s.d.)): 97 (2) %
Respiratory Rate (patients; Hour 2, mean (s.d.)): 17 (1) bpm
Systolic BP (patients; Hour 2, mean (s.d.)): 124 (18) mmHg
Temperature (patients; Hour 2, mean (s.d.)): 36.4 (0.6) C
Heart Rate (patients; Hour 3, mean (s.d.)): 71 (12) bpm
Oxygen Saturations (patients; Hour 3, mean (s.d.)): 96 (2) %
Respiratory Rate (patients; Hour 3, mean (s.d.)): 16 (1) bpm
Systolic BP (patients; Hour 3, mean (s.d.)): 122 (32) mmHg
Temperature (patients; Hour 3, mean (s.d.)): 36.5 (0.4) C
Heart Rate (patients; Hour 4, mean (s.d.)): 77 (14) bpm
Oxygen Saturations (patients; Hour 4, mean (s.d.)): 96 (2) %
Respiratory Rate (patients; Hour 4, mean (s.d.)): 16 (1) bpm
Systolic BP (patients; Hour 4, mean (s.d.)): 125 (17) mmHg
Temperature (patients; Hour 4, mean (s.d.)): 36.8 (0.4) C
clinically significant variation of clinical observations (patients; between baseline and point of discharge from study (hour 4)): no clinically significant variation
